Assay results taken from PMC3161067, “Combined SAXS/EM Based Models of the S. elongatus Post-Translational Circadian Oscillator and its Interactions with the Output His-Kinase SasA” (PLoS ONE, 2011).

B2: wild type KaiC (S. elongatus) (natural protein, UniProt Q79PF4 1-519, looked up)
chain: MTSAEMTSPNNNSEHQAIAKMRTMIEGFDDISHGGLPIGRSTLVSGTSGTGKTLFSIQFLYNGIIEFDEPGVFVTFEETPQDIIKNARSFGWDLAKLVDEGKLFILDASPDPEGQEVVGGFDLSALIERINYAIQKYRARRVSIDSVTSVFQQYDASSVVRRELFRLVARLKQIGATTVMTTERIEEYGPIARYGVEEFVSDNVVILRNVLEGERRRRTLEILKLRGTSHMKGEYPFTITDHGINIFPLGAMRLTQRSSNVRVSSGVVRLDEMCGGGFFKDSIILATGATGTGKTLLVSRFVENACANKERAILFAYEESRAQLLRNAYSWGMDFEEMERQNLLKIVCAYPESAGLEDHLQIIKSEINDFKPARIAIDSLSALARGVSNNAFRQFVIGVTGYAKQEEITGLFTNTSDQFMGAHSITDSHISTITDTIILLQYVEIRGEMSRAINVFKMRGSWHDKAIREFMISDKGPDIKDSFRNFERIISGSPTRITVDEKSELSRIVRGVQEKGPES
notes: KaiC, Synechococcus elongatus; C-terminal residue S519; Its phosphorylation state varies in the cycling reaction; also called wt-KaiC; TST; source: E. coli BL21, purified
B3: KaiC T432A/S431A double mutant (natural protein, S. elongatus, UniProt Q79PF4 1-519, looked up)
chain: MTSAEMTSPNNNSEHQAIAKMRTMIEGFDDISHGGLPIGRSTLVSGTSGTGKTLFSIQFLYNGIIEFDEPGVFVTFEETPQDIIKNARSFGWDLAKLVDEGKLFILDASPDPEGQEVVGGFDLSALIERINYAIQKYRARRVSIDSVTSVFQQYDASSVVRRELFRLVARLKQIGATTVMTTERIEEYGPIARYGVEEFVSDNVVILRNVLEGERRRRTLEILKLRGTSHMKGEYPFTITDHGINIFPLGAMRLTQRSSNVRVSSGVVRLDEMCGGGFFKDSIILATGATGTGKTLLVSRFVENACANKERAILFAYEESRAQLLRNAYSWGMDFEEMERQNLLKIVCAYPESAGLEDHLQIIKSEINDFKPARIAIDSLSALARGVSNNAFRQFVIGVTGYAKQEEITGLFTNTSDQFMGAHSITDSHIAAITDTIILLQYVEIRGEMSRAINVFKMRGSWHDKAIREFMISDKGPDIKDSFRNFERIISGSPTRITVDEKSELSRIVRGVQEKGPES
notes: KaiC, Synechococcus elongatus, with S431A and T432A; the tag is therefore uncertain; also called KaiC-aa; S431A/T432A
B4: KaiC T432E/S431E double mutant (natural protein, S. elongatus, UniProt Q79PF4 1-519, looked up)
chain: MTSAEMTSPNNNSEHQAIAKMRTMIEGFDDISHGGLPIGRSTLVSGTSGTGKTLFSIQFLYNGIIEFDEPGVFVTFEETPQDIIKNARSFGWDLAKLVDEGKLFILDASPDPEGQEVVGGFDLSALIERINYAIQKYRARRVSIDSVTSVFQQYDASSVVRRELFRLVARLKQIGATTVMTTERIEEYGPIARYGVEEFVSDNVVILRNVLEGERRRRTLEILKLRGTSHMKGEYPFTITDHGINIFPLGAMRLTQRSSNVRVSSGVVRLDEMCGGGFFKDSIILATGATGTGKTLLVSRFVENACANKERAILFAYEESRAQLLRNAYSWGMDFEEMERQNLLKIVCAYPESAGLEDHLQIIKSEINDFKPARIAIDSLSALARGVSNNAFRQFVIGVTGYAKQEEITGLFTNTSDQFMGAHSITDSHIEEITDTIILLQYVEIRGEMSRAINVFKMRGSWHDKAIREFMISDKGPDIKDSFRNFERIISGSPTRITVDEKSELSRIVRGVQEKGPES
modifications: phosphoserine at 320 (in the A and F subunits of the crystal structure)
notes: KaiC, Synechococcus elongatus, with S431E and T432E; the tag is therefore uncertain; also called KaiC-ee; S431E/T432E

Columns and labels:
[1] = target: the molecule itself; assay: SAXS; individual proteins in solution, 0.5-2.0 mg/mL, 10 or 20°C; ab initio envelopes (DAMMIN, GASBOR) compared with crystal structures
[2] = target: B3; assay: SAXS; binary complexes in solution, conditions set by native PAGE, 0.5-2.0 mg/mL, 10 or 20°C; ab initio envelopes without symmetry; settings: both partners purified
[3] = target: T1, KaiBC complex (KaiB with wild type KaiC) (S. elongatus, UniProt Q79PF5 1-102; Q79PF4 1-519); assay: negative-stain EM; Kai complexes of the in vitro cycling reaction with 1x or 4x KaiA; reconstruction of class IV particles at ~30 Å; settings: both partners purified
T1 construct: KaiB, Synechococcus elongatus, as m2; wild type KaiC, Synechococcus elongatus, as m3; KaiC phosphorylation state varies in the cycling reaction; also called KaiB-KaiC; source: formed in the in vitro cycling reaction from purified proteins; copies: + 6
T1 sequence (looked up) 1: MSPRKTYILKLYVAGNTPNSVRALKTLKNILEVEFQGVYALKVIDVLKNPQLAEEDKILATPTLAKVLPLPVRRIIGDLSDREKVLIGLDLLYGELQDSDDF
T1 sequence (looked up) 2: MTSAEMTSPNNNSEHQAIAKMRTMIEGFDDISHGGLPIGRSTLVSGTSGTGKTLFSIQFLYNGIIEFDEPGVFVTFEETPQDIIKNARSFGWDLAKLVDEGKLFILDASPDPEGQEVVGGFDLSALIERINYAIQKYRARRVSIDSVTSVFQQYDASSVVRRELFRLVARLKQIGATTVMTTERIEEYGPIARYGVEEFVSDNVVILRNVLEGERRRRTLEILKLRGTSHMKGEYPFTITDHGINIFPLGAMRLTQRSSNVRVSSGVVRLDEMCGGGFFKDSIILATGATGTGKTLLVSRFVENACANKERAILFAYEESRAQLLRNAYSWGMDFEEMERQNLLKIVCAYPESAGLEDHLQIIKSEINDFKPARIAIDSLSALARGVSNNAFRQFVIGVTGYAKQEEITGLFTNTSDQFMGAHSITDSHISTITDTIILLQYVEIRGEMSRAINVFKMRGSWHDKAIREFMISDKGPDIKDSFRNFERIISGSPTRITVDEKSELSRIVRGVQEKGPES

[4] = target: the molecule itself; assay: as above
[5] = target: the molecule itself; assay: negative-stain EM; SasA:KaiC-aa complex, uranyl formate 0.75%, class averages and 3D reconstruction (C1) at 23.5 Å
[6] = target: the molecule itself; assay: crystal structure; KaiC-ee with ATPγS, 3.0 Å, molecular replacement with PDB 3DVL
[7] = target: B4; assay: SAXS; binary complexes in solution, conditions set by native PAGE, 0.5-2.0 mg/mL, 10 or 20°C; ab initio envelopes without symmetry; settings: both partners purified
[8] = target: B3; assay: negative-stain EM; SasA:KaiC-aa complex, uranyl formate 0.75%, class averages and 3D reconstruction (C1) at 23.5 Å; settings: both partners purified
[9] = target: B2; assay: negative-stain EM; Kai complexes of the in vitro cycling reaction with 1x or 4x KaiA; reconstruction of class IV particles at ~30 Å; settings: both partners purified

B1: KaiA (S. elongatus) (natural protein, UniProt Q79PF6 1-284, looked up)
chain: MLSQIAICIWVESTAILQDCQRALSADRYQLQVCESGEMLLEYAQTHRDQIDCLILVAANPSFRAVVQQLCFEGVVVPAIVVGDRDSEDPDEPAKEQLYHSAELHLGIHQLEQLPYQVDAALAEFLRLAPVETMADHIMLMGANHDPELSSQQRDLAQRLQERLGYLGVYYKRDPDRFLRNLPAYESQKLHQAMQTSYREIVLSYFSPNSNLNQSIDNFVNMAFFADVPVTKVVEIHMELMDEFAKKLRVEGRSEDILLDYRLTLIDVIAHLCEMYRRSIPRET
notes: KaiA, Synechococcus elongatus; also called KaiA dimer; wt KaiA; source: E. coli BL21, GST fusion, purified
stoichiometry N [1]: 2
stoichiometry N [2]: 1 KaiA dimer per KaiC hexamer
binding result [3]: binds

B2
stoichiometry N [4]: 6

B3
stoichiometry N [5]: 6

B4
stoichiometry N [6]: 6

B5: SasA (S. elongatus His kinase) (natural protein, UniProt Q06904 1-387, looked up)
chain: MGESLSPQALAQPLLLQLFVDTRPLSQHIVQRVKNILAAVEATVPISLQVINVADQPQLVEYYRLVVTPALVKIGPGSRQVLSGIDLTDQLANQLPQWLVQQEAFFADREPPEVNIPFTELGQPETPALQQADAFFQLQQQYADLSERTKFLEQVIALVAHDLRNPLTAALLAVDTIQIRSQSFSVATAKEMQGLCSLFDQARSQLREIERMIAEILEATRHSGESLRINPREVVFEPLLQQVLEQLHERWRSKQQQLITDVPGDLPTLYADPDRLRQVLVNLLDNAIKYTPPGGTITIAALHRTSQKVQISISDTGSGIPRDQLSVIFKNLVRLSRDSSQEGYGIGLSVCQRIVQAHFGRIWVASELGQGSTFHFTMPVYRYTMPC
notes: SasA, adaptive-response sensory His kinase, Synechococcus elongatus; N-terminal sensory domain is residues 1-97; its expression and purification are not described; also called full-length SasA; wt SasA
stoichiometry N [7]: 2 SasA dimers per KaiC hexamer
stoichiometry N [8]: 2 binding sites per KaiC hexamer

B6: KaiB (S. elongatus) (natural protein, UniProt Q79PF5 1-102, looked up)
chain: MSPRKTYILKLYVAGNTPNSVRALKTLKNILEVEFQGVYALKVIDVLKNPQLAEEDKILATPTLAKVLPLPVRRIIGDLSDREKVLIGLDLLYGELQDSDDF
notes: KaiB, Synechococcus elongatus; Tetramer free in solution; The crystal model used for SAXS (PDB 2QKE) is KaiB of another species (T. elongatus); also called KaiB tetramer; wt KaiB; source: E. coli BL21, GST fusion, purified
stoichiometry N [1]: 4
stoichiometry N [7]: 2 KaiB dimers per KaiC hexamer
binding result [9]: binds
